{"source": "patent US11653679B2", "about": "“High-purity steviol glycosides” (PureCircle Sdn Bhd, priority 2014, dated 2023)", "molecules": {"B1": {"name": "Example 12: UGT76G1 lysate prepared by pCOLDIII plasmid and Origami2 (DE3) expression strain (protein, UniProt Q6VAB4 1-458, looked up)", "UDP-glycosyltransferase 76G1": "MENKTETTVRRRRRIILFPVPFQGHINPILQLANVLYSKGFSITIFHTNFNKPKTSNYPHFTFRFILDNDPQDERISNLPTHGPLAGMRIPIINEHGADELRRELELLMLASEEDEEVSCLITDALWYFAQSVADSLNLRRLVLMTSSLFNFHAHVSLPQFDELGYLDPDDKTRLEEQASGFPMLKVKDIKSAYSNWQILKEILGKMIKQTKASSGVIWNSFKELEESELETVIREIPAPSFLIPLPKHLTASSSSLLDHDRTVFQWLDQQPPSSVLYVSFGSTSEVDEKDFLEIARGLVDSKQSFLWVVRPGFVKGSTWVEPLPDGFLGERGRIVKWVPQQEVLAHGAIGAFWTHSGWNSTLESVCEGVPMIFSDFGLDQPLNARYMSDVLKVGVYLENGWERGEIANAIRRVMVDEEGEYIRQNARVLKQKADVSLMKGGSSYESLESLVSYISSL", "modifications": "E. coli lysate, pCOLDIII", "notes": "UGT76G1 lysate prepared by pCOLDIII plasmid and Origami2 (DE3) expression strain"}, "B2": {"name": "Example 7: UGT76G1 lysate prepared by pET30a+ plasmid and BL21 (DE3) expression strain (protein, UniProt Q6VAB4 1-458, looked up)", "UDP-glycosyltransferase 76G1": "MENKTETTVRRRRRIILFPVPFQGHINPILQLANVLYSKGFSITIFHTNFNKPKTSNYPHFTFRFILDNDPQDERISNLPTHGPLAGMRIPIINEHGADELRRELELLMLASEEDEEVSCLITDALWYFAQSVADSLNLRRLVLMTSSLFNFHAHVSLPQFDELGYLDPDDKTRLEEQASGFPMLKVKDIKSAYSNWQILKEILGKMIKQTKASSGVIWNSFKELEESELETVIREIPAPSFLIPLPKHLTASSSSLLDHDRTVFQWLDQQPPSSVLYVSFGSTSEVDEKDFLEIARGLVDSKQSFLWVVRPGFVKGSTWVEPLPDGFLGERGRIVKWVPQQEVLAHGAIGAFWTHSGWNSTLESVCEGVPMIFSDFGLDQPLNARYMSDVLKVGVYLENGWERGEIANAIRRVMVDEEGEYIRQNARVLKQKADVSLMKGGSSYESLESLVSYISSL", "modifications": "E. coli lysate, pET30a+", "notes": "UGT76G1 lysate prepared by pET30a+ plasmid and BL21 (DE3) expression strain"}, "B3": {"name": "Example 8: UGT76G1 lysate prepared by pET30a+ plasmid and Tuner (DE3) expression strain (protein, UniProt Q6VAB4 1-458, looked up)", "UDP-glycosyltransferase 76G1": "MENKTETTVRRRRRIILFPVPFQGHINPILQLANVLYSKGFSITIFHTNFNKPKTSNYPHFTFRFILDNDPQDERISNLPTHGPLAGMRIPIINEHGADELRRELELLMLASEEDEEVSCLITDALWYFAQSVADSLNLRRLVLMTSSLFNFHAHVSLPQFDELGYLDPDDKTRLEEQASGFPMLKVKDIKSAYSNWQILKEILGKMIKQTKASSGVIWNSFKELEESELETVIREIPAPSFLIPLPKHLTASSSSLLDHDRTVFQWLDQQPPSSVLYVSFGSTSEVDEKDFLEIARGLVDSKQSFLWVVRPGFVKGSTWVEPLPDGFLGERGRIVKWVPQQEVLAHGAIGAFWTHSGWNSTLESVCEGVPMIFSDFGLDQPLNARYMSDVLKVGVYLENGWERGEIANAIRRVMVDEEGEYIRQNARVLKQKADVSLMKGGSSYESLESLVSYISSL", "modifications": "E. coli Tuner (DE3) lysate, pET30a+", "notes": "UGT76G1 lysate prepared by pET30a+ plasmid and Tuner (DE3) expression strain"}, "B4": {"name": "Example 9: UGT76G1 lysate prepared by pMAL plasmid and BL21 expression strain (protein, UniProt Q6VAB4 1-458, looked up)", "UDP-glycosyltransferase 76G1": "MENKTETTVRRRRRIILFPVPFQGHINPILQLANVLYSKGFSITIFHTNFNKPKTSNYPHFTFRFILDNDPQDERISNLPTHGPLAGMRIPIINEHGADELRRELELLMLASEEDEEVSCLITDALWYFAQSVADSLNLRRLVLMTSSLFNFHAHVSLPQFDELGYLDPDDKTRLEEQASGFPMLKVKDIKSAYSNWQILKEILGKMIKQTKASSGVIWNSFKELEESELETVIREIPAPSFLIPLPKHLTASSSSLLDHDRTVFQWLDQQPPSSVLYVSFGSTSEVDEKDFLEIARGLVDSKQSFLWVVRPGFVKGSTWVEPLPDGFLGERGRIVKWVPQQEVLAHGAIGAFWTHSGWNSTLESVCEGVPMIFSDFGLDQPLNARYMSDVLKVGVYLENGWERGEIANAIRRVMVDEEGEYIRQNARVLKQKADVSLMKGGSSYESLESLVSYISSL", "modifications": "E. coli lysate, pMAL vector", "notes": "UGT76G1 lysate prepared by pMAL plasmid and BL21 expression strain"}, "B5": {"name": "Example 10: UGT76G1 lysate prepared by pMAL plasmid and ArcticExpress expression strain (protein, UniProt Q6VAB4 1-458, looked up)", "UDP-glycosyltransferase 76G1": "MENKTETTVRRRRRIILFPVPFQGHINPILQLANVLYSKGFSITIFHTNFNKPKTSNYPHFTFRFILDNDPQDERISNLPTHGPLAGMRIPIINEHGADELRRELELLMLASEEDEEVSCLITDALWYFAQSVADSLNLRRLVLMTSSLFNFHAHVSLPQFDELGYLDPDDKTRLEEQASGFPMLKVKDIKSAYSNWQILKEILGKMIKQTKASSGVIWNSFKELEESELETVIREIPAPSFLIPLPKHLTASSSSLLDHDRTVFQWLDQQPPSSVLYVSFGSTSEVDEKDFLEIARGLVDSKQSFLWVVRPGFVKGSTWVEPLPDGFLGERGRIVKWVPQQEVLAHGAIGAFWTHSGWNSTLESVCEGVPMIFSDFGLDQPLNARYMSDVLKVGVYLENGWERGEIANAIRRVMVDEEGEYIRQNARVLKQKADVSLMKGGSSYESLESLVSYISSL", "modifications": "E. coli lysate, pMAL", "notes": "UGT76G1 lysate prepared by pMAL plasmid and ArcticExpress expression strain"}, "B6": {"name": "gi297795735_XP_002865752.1: UDP-glucoronosyl/UDP-glucosyl transferase family protein [Arabidopsis lyrata subsp. lyrata], SEQ ID NO:7 (protein, listed as Arabidopsis lyrata)", "chain": "MDDKKEEVMHIAMFPWLAMGHLLPFLRLSKLLAQKGHKISFISTPRNILRLPKLPSNLSSSITFVSFPLPSISGLPPSSESSMDVPYNKQQSLKAAFDLLQPPLTEFLRLSSPDWIIYDYASHWLPSIAKELGISKAFFSLFNAATLCFMGPSSSLIEESRSTPEDFTVVPPWVPFKSTIVFRYHEVSRYVEKTDEDVTGVSDSVRFGYTIDGSDAVFVRSCPEFEPEWFSLLQDLYRKPVFPIGFLPPVIEDDDDDTTWVRIKEWLDKQRVNSVVYVSLGTEASLRREELTELALGLEKSETPFFWVLRNEPQIPDGFEERVKGRGMVHVGWVPQVKILSHESVGGFLTHCGWNSVVEGIGFGKVPIFLPVLNEQGLNTRLLQGKGLGVEVLRDERDGSFGSDSVADSVRLVMIDDAGEEIREKVKLMKGLFGNMDENIRYVDELVGFMRNDESSQLKEEEEEDDCSDDQSSEVSSETDEKELNLDLKEEKRRISVYKSLSSEFDDYVANEKMG"}}, "assay_type_in_all_cases": "biochemical", "key": {"[1]": {"test": "Transformation of Stevioside to Rebaudioside A with UGT76G1 lysate (Examples 4, 13), HPLC", "settings": "per mL of lysate; 1 U transforms 1 μmol in 1 hour at 30° C. and pH 7.2", "method": "The total volume of the reaction was 5.0 mL with the following composition: 50 mM sodium phosphate buffer pH 7.2, 3 mM MgCl2, 2.5 mM UDP-glucose, 0.5 mM Stevioside and 500 μl, of UGT76G1 thawed lysate. The reactions were run at 30° C. on an orbitary shaker at 135 rpm. For each sample, 460 μL of the reaction mixture was quenched with 40 μL of 2N H2SO4 and 420 μL of methanol/water (6/4). The samples were immediately centrifuged and kept at 10° C. before analysis by HPLC (CAD).\n(§1) Activity tests were performed on a 5 mL scale with 500 μL of thawed lysate for the transformation of Stevioside to Rebaudioside A and Rebaudioside D to Rebaudioside M using 0.5 mM of substrate, 2.5 mM of UDP-Glucose and 3 mM MgCl2 in 50 mM Sodium Phosphate buffer at pH 7.2. Samples were taken and analyzed by HPLC."}, "[2]": {"test": "Transformation of Rebaudioside D to Rebaudioside M with UGT76G1 (Examples 6, 13), HPLC", "settings": "per mL of lysate; 1 U transforms 1 μmol in 1 hour at 30° C. and pH 7.2", "method": "The total volume of the reaction was 2 mL with the following composition: 50 mM sodium phosphate buffer pH 7.2, 3 mM MgCl2, 3.8 mM UDP-glucose, 0.5 mM Rebaudioside D and 180 μL of in-vitro produced UGT76G1. The reactions were run at 30° C. on an orbitary shaker at 135 rpm. For each sample, 400 μL of reaction mixture was quenched with 40 μL of 2N H2SO4 and 360 μL of 60% MeOH. After centrifugation, the supernatant was analyzed by HPLC (CAD).\nas §1"}, "[3]": {"test": "Catalytic test Rebaudioside A to Rebaudioside D with in-vitro expressed UDP-glucosyltransferases (Examples 20, 21), HPLC", "method": "The prepared expression medium mix was added to the plasmid solution and the solution was allowed to incubate at 30° C. for 3 hours while mixing the mixture every 45 minutes. 5 μL of the mixture was frozen whereas the remainder was used for the catalytic test for the conversion of Rebaudioside A to Rebaudioside D.\n(§2) 430 μL of a reaction mixture containing 0.5 mM Rebaudioside A, 3 mM MgCl2, 50 mM phosphate buffer (pH7.2) and 2.5 mM UDP-glucose was added to a 1.5 mL sterile microtube. 52 μl of the enzyme expression medium was added and the resulting mixture was allowed to react at 30° C. for 24 hours. 125 μL samples were taken after 2 hours, 16 hours and 24 hours and added to a 115 μL of 60% methanol and 10 μL of 2 N H2SO4. The quenched sample was centrifuged at 18,000 g for 2 minutes at RT. 200 μL was transferred to an HPLC vial and analyzed.\nThe HPLC assay was performed as follows:\nas §2, with “μL” for “μl”, “to” for “to an”\n(§3) The HPLC assay was performed as described in EXAMPLE 20."}, "[4]": {"test": "Activity of in-vivo produced enzymes for transformation of Rebaudioside A (Example 22)", "method": "Activity tests were performed at 5 mL scale with 1,000 μL of thawed lysate for the transformation of Rebaudioside A using 0.5 mM of substrate, 2.5 mM of UDP-Glucose and 3 mM MgCl2 in 50 mM Sodium Phosphate buffer at pH 7.2. Samples were taken and analyzed by HPLC.\nas §3"}, "[5]": {"settings": "0.5 mM Rebaudioside A, 30° C., HPLC"}}, "data": [{"molecule": "B1", "values": [{"measurement": "Transformation activity Stevioside to Rebaudioside A", "setting": "[1]", "result": 37, "unit": "U mL^−1"}, {"measurement": "Transformation activity Rebaudioside D to Rebaudioside M", "setting": "[2]", "result": 0.20, "unit": "U mL^−1"}]}, {"molecule": "B2", "values": [{"measurement": "Transformation activity Stevioside to Rebaudioside A", "setting": "[1]", "result": 29, "unit": "U mL^−1"}, {"measurement": "Transformation activity Rebaudioside D to Rebaudioside M", "setting": "[2]", "result": 0.31, "unit": "U mL^−1"}]}, {"molecule": "B3", "values": [{"measurement": "Transformation activity Stevioside to Rebaudioside A", "setting": "[1]", "result": 33, "unit": "U mL^−1"}, {"measurement": "Transformation activity Rebaudioside D to Rebaudioside M", "setting": "[2]", "result": 0.40, "unit": "U mL^−1"}]}, {"molecule": "B4", "values": [{"measurement": "Transformation activity Stevioside to Rebaudioside A", "setting": "[1]", "result": 20, "unit": "U mL^−1"}, {"measurement": "Transformation activity Rebaudioside D to Rebaudioside M", "setting": "[2]", "result": 0.15, "unit": "U mL^−1"}]}, {"molecule": "B5", "values": [{"measurement": "Transformation activity Stevioside to Rebaudioside A", "setting": "[1]", "result": 15, "unit": "U mL^−1"}, {"measurement": "Transformation activity Rebaudioside D to Rebaudioside M", "setting": "[2]", "result": 0.25, "unit": "U mL^−1"}]}, {"molecule": "B6", "values": [{"measurement": "Steviol glycoside conversion in reaction mixture, Reb A", "setting": "[3]; [5]", "result": 95.8, "unit": "% area"}, {"measurement": "Steviol glycoside conversion in reaction mixture, Reb D", "setting": "[3]; [5]", "result": 0.28, "unit": "% area"}, {"measurement": "Steviol glycoside conversion in reaction mixture, Reb UNK (later identified as reb D2)", "setting": "[3]; [5]", "result": 3.9, "unit": "% area"}, {"measurement": "Conversion RebA to RebD", "setting": "[3]; in-vitro expressed enzyme", "result": "Active"}, {"measurement": "Conversion after 45 hrs.", "setting": "[4]; 0.5 mM, in-vivo produced enzyme lysate", "result": 0.0, "unit": "%"}, {"measurement": "Reb D selectivity", "setting": "[4]; after 45 hrs.", "result": "Reb D Not detected"}]}]}
